Measured values published in patent publication US20240067716A1, “IONIC LIQUID FORMULATIONS FOR TREATING INFLAMMATORY AND AUTOIMMUNE DISEASES” (i2O Therapeutics, Inc., priority 2021, published 2024).

Assay: Local delivery of infliximab to small intestinal tissue after intrajejunal or intravenous dosing, LC-MS/MS
Format: in vivo, Wistar rats
Details: rat, 5 h
Text: Adult non-diabetic male Wistar rats were fasted overnight but given free access to water and subsequently dosed via intrajejunal injection (IJ) with infliximab and one of various choline-based ionic liquids, dosed via IJ with infliximab and saline, or dosed via intravenous injection (IV) with infliximab and saline.

Substance: infliximab
- % of the injected infliximab dose in the local small intestinal tissue (intrajejunal injection (IJ)): 0.06%
- % of the injected antibody dose in the small intestinal tissue (intravenous injection (IV), in saline): 0.95%
